Experimental data from patent US20240116985A1, “STAPLED PEPTIDES AND METHODS THEREOF” (priority 2020, published 2024).
Starred links: 1 amine or outer side, 2 acyl side, 3 side chain; linkers in the order of their positions; H or OH if unused. Positions of bridges follow the written chain, without caps; N, C: chain ends. Non-standard residues stand in square brackets, D forms with d. Primed or numbered codes have the meaning given here. *: point of attachment. PyrS2″ = (S)-3-amino-1-((pent-4-en-1-yloxy)carbonyl)pyrrolidine-3-carboxylic acid (stapling residue), C=CCCCOC(=O)N1CC[C@@](N[*:1])(C(=O)[*:2])C1; B5(32) = 2-amino-2-(pent-4-en-1-yl)hept-6-enoic acid (bis-4-pentenylglycine, two alkene side chains), C=CCCCC(CCCC=C)(N[*:1])C(=O)[*:2]; B5(4) = 2,2-bis(4-pentenyl)glycine = 2-amino-2-(pent-4-en-1-yl)hept-6-enoic acid (stitching residue), C=CCCCC(CCCC=C)(N[*:1])C(=O)[*:2]; B5(5) = 2,2-bis(4-pentenyl)glycine, 2-amino-2-(pent-4-en-1-yl)hept-6-enoic acid (stitching residue), C=CCCCC(CCCC=C)(N[*:1])C(=O)[*:2]; TfeGA = (S)-2-amino-3-((carboxymethyl)(2,2,2-trifluoroethyl)amino)propanoic acid, O=C([C@H](CN(CC(=O)[*:3])CC(F)(F)F)N[*:1])[*:2]; PyrS2 = (S)-3-amino-1-((pent-4-en-1-yloxy)carbonyl)pyrrolidine-3-carboxylic acid, C=CCCCOC(=O)N1CC[C@@](N[*:1])(C(=O)[*:2])C1; B5(22) = 2-amino-2-(pent-4-en-1-yl)hept-6-enoic acid (two alkene side chains), C=CCCCC(CCCC=C)(N[*:1])C(=O)[*:2]; 3Br4FF = (S)-2-amino-3-(3-bromo-4-fluorophenyl)propanoic acid, O=C([C@H](Cc1ccc(F)c(Br)c1)N[*:1])[*:2]; B5(3) = 2,2-bis(4-pentenyl)glycine (stitching residue), C=CCCCC(CCCC=C)(N[*:1])C(=O)[*:2]; B5 = 2-amino-2-(pent-4-en-1-yl)hept-6-enoic acid, C=CCCCC(CCCC=C)(N[*:1])C(=O)[*:2]; Phe(3-COOH) = N[C@@H](Cc1cccc(C(=O)O)c1)C(=O)O; Phe(2-CF3) = N[C@@H](Cc1ccccc1C(F)(F)F)C(=O)O; Phe(3,4-Me2) = Cc1ccc(C[C@H](N)C(=O)O)cc1C; Phe(3-Br) = N[C@@H](Cc1cccc(Br)c1)C(=O)O; Phe(2-Cl) = N[C@@H](Cc1ccccc1Cl)C(=O)O; Bta = N[C@@H](Cc1csc2ccccc12)C(=O)O; αAllylPro = C=CC[C@@]1(C(=O)O)CCCN1; tBuAla = CC(C)(C)C[C@H](N)C(=O)O; 3Thi = N[C@@H](Cc1ccsc1)C(=O)O; hSer = N[C@@H](CCO)C(=O)O; BrAc = O=C(CBr)*

Legend:
[1] = biological target: full-length beta-Catenin (Uniprot ID P35222) (Homo sapiens (Human)) (UniProt P35222); test: fluorescence polarization competition; full-length beta-catenin, 5FAM-TCF4(10-53) probe
Target sequence in this assay (P35222 2-781 limits assumed): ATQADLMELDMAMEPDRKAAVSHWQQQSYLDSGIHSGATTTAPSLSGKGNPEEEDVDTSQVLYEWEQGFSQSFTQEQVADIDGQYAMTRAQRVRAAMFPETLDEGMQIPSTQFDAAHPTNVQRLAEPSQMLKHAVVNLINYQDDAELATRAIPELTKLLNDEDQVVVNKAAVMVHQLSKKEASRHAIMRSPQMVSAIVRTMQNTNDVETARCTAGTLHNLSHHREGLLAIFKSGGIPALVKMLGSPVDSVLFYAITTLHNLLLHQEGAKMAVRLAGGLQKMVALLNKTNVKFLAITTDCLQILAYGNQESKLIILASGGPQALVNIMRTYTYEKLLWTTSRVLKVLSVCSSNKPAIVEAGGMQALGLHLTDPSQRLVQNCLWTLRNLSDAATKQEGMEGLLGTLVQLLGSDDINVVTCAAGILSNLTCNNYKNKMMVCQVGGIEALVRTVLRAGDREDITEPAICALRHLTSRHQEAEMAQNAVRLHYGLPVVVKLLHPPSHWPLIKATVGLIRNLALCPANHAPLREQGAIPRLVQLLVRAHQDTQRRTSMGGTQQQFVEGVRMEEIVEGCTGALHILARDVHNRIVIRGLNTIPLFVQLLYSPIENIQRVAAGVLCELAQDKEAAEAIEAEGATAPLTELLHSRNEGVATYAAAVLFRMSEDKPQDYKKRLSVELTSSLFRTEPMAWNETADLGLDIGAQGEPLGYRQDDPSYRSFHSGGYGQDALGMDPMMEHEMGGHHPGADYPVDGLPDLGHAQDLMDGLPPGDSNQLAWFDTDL

[2] = biological target: full-length beta-Catenin (Uniprot ID P35222) (Homo sapiens (Human)) (UniProt P35222); test: fluorescence polarization competition; full-length beta-catenin, competitor probe 5FAM-TCF4(10-53)
Target sequence in this assay (P35222 whole entry): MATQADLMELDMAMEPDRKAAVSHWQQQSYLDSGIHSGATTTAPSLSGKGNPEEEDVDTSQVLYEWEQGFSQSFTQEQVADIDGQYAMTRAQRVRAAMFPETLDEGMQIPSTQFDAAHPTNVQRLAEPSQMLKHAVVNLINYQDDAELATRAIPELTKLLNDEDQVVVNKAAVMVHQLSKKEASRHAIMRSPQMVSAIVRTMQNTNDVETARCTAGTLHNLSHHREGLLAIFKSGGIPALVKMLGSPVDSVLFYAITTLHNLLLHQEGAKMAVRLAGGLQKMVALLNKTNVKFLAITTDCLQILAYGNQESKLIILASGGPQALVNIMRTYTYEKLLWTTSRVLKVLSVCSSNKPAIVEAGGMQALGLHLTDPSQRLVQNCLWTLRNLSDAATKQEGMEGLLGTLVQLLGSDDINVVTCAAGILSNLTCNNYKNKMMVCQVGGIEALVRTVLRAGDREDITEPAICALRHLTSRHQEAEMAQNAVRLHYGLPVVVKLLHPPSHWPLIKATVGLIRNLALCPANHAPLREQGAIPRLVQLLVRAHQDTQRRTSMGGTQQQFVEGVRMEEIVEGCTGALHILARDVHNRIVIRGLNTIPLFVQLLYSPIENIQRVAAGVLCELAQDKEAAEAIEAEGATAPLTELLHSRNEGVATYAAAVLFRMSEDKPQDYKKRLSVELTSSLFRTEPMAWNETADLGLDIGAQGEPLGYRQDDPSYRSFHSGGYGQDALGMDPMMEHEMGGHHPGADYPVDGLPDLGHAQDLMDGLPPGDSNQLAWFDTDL

[3] = biological target: full-length beta-Catenin (Uniprot ID P35222) (Homo sapiens (Human)) (UniProt P35222); test: fluorescence polarization competition; 10 nM full-length beta-catenin + 10 nM 5FAM-TCF4(10-53) probe
Target sequence in this assay (P35222 whole entry): as above

Row | IC50 [1] | IC50 [2] | EC50 [3] | Binder
1 | 310 nM | – | – | Ac-[αAllylPro]D[tBuAla][B5]NTAAFN[PyrS2][3Thi][Bta]H-NH2 (staple 1-4, 4-11; also: later eluting HPLC isomer) [I-2141]
2 | 7180 nM | – | – | Ac-[αAllylPro]D[tBuAla][B5]TTAAFN[PyrS2][3Thi][Bta]Q-NH2 (staple 1-4, 4-11; also: later eluting HPLC isomer) [I-2149]
3 | – | 15 nM | – | Ac-[αAllylPro]D[tBuAla][B5(4)]D[Phe(3-COOH)]AAFL[PyrS2][Phe(2-CF3)][Phe(3,4-Me2)]S-NH2 (staple 1-4, 4-11) [I-2293]
4 | – | 2680 nM | – | Ac-[αAllylPro]D[tBuAla][B5(4)]D[Phe(3-COOH)]AAFL[PyrS2][3Thi][Bta]NALALALA-NH2 (staple 1-4, 4-11; also: later eluting staple isomer) [I-2284]
5 | 2110 nM | – | 2110 nM | Ac-[αAllylPro]D[tBuAla][B5(22)]D[TfeGA]AAFN[PyrS2][3Thi][Bta]S-NH2 (staple 1-4, 4-11; also: staple isomer composition, later-eluting HPLC peak) [I-941]
6 | 10000 nM | – | – | Ac-[αAllylPro]D[tBuAla][B5]D[Phe(3-COOH)]AAFL[PyrS2][Phe(3-Br)][Phe(2-CF3)]Q-NH2 (staple 1-4, 4-11) [I-2155]
7 | 248 nM | – | – | Ac-[αAllylPro]D[tBuAla][B5]NTAAFH[PyrS2][3Thi][Bta]Q-NH2 (staple 1-4, 4-11; also: earlier eluting HPLC isomer) [I-2146]
8 | – | 94 nM | – | BrAc-[αAllylPro]D[tBuAla][B5(32)]DDAAFQ[PyrS2][3Thi][Bta]H-NH2 (staple 1-4, 4-11) [I-2285]
9 | 1280 nM | – | 1280 nM | Ac-[αAllylPro]D[tBuAla][B5(22)]D[TfeGA]AAFN[PyrS2][3Thi][Bta]T-NH2 (staple 1-4, 4-11; also: staple isomer composition, earlier-eluting HPLC peak) [I-942]
10 | 1050 nM | – | 1050 nM | Ac-[αAllylPro]D[tBuAla][B5(5)]D[TfeGA]AAFN[PyrS2″][3Thi][Bta]L-NH2 (staple 1-4, 4-11; also: staple isomer composition, later-eluting HPLC peak) [I-947]
11 | – | 7 nM | – | Ac-[αAllylPro]D[tBuAla][B5(4)]D[Phe(3-COOH)]AAFL[PyrS2][3Thi][3Br4FF]Q-NH2 (staple 1-4, 4-11) [I-2287]
12 | 2020 nM | – | – | Ac-[αAllylPro]D[tBuAla][B5]NTAAFT[PyrS2][3Thi][Bta]F-NH2 (staple 1-4, 4-11; also: earlier eluting HPLC isomer) [I-2144]
13 | – | 14 nM | – | Ac-[αAllylPro]D[tBuAla][B5(4)]D[Phe(3-COOH)]QAFL[PyrS2][Phe(2-CF3)][3Br4FF]A-NH2 (staple 1-4, 4-11) [I-2290]
14 | 1010 nM | – | – | Ac-[αAllylPro]D[tBuAla][B5(3)]NTAAFN[PyrS2″][3Thi][Bta]W-NH2 (staple 1-4, 4-11; also: earlier eluting HPLC isomer) [I-2138]
15 | 761 nM | – | 761 nM | Ac-[αAllylPro]D[tBuAla][B5(5)]D[TfeGA]AAFN[PyrS2″][3Thi][Bta]A-NH2 (staple 1-4, 4-11; also: staple isomer composition, earlier-eluting HPLC peak) [I-944]
16 | 1080 nM | – | 1080 nM | Ac-[αAllylPro]D[tBuAla][B5(5)]D[TfeGA]AAFN[PyrS2″][3Thi][Bta]A-NH2 (staple 1-4, 4-11; also: staple isomer composition, later-eluting HPLC peak) [I-945]
17 | – | 2860 nM | – | Ac-[αAllylPro]D[tBuAla][B5(4)]D[Phe(3-COOH)]AAFL[PyrS2][3Thi][Bta]NALALALA-NH2 (staple 1-4, 4-11; also: earlier eluting staple isomer) [I-2283]

Row | IC50 [1] | IC50 [2] | EC50 [3] | Binder
18 | 1740 nM | – | 1740 nM | Ac-[αAllylPro]D[tBuAla][B5(22)]D[TfeGA]AAFN[PyrS2][3Thi][Bta]S-NH2 (staple 1-4, 4-11; also: staple isomer composition, earlier-eluting HPLC peak) [I-940]
19 | 217 nM | – | – | Ac-[αAllylPro]D[tBuAla][B5]NTAAFN[PyrS2][3Thi][Bta]A-NH2 (staple 1-4, 4-11; also: later eluting HPLC isomer) [I-2143]
20 | 390 nM | – | – | Ac-[αAllylPro]D[tBuAla][B5]NTAAFH[PyrS2][3Thi][Bta]Q-NH2 (staple 1-4, 4-11; also: later eluting HPLC isomer) [I-2147]
21 | 2070 nM | – | – | Ac-[αAllylPro]D[tBuAla][B5]NTAAFT[PyrS2][3Thi][Bta]F-NH2 (staple 1-4, 4-11; also: later eluting HPLC isomer) [I-2145]
22 | 1480 nM | – | – | Ac-[αAllylPro]D[tBuAla][B5]D[Phe(3-COOH)]AAFL[PyrS2][Phe(3-Br)]FQ-NH2 (staple 1-4, 4-11) [I-2153]
23 | 10000 nM | – | – | Ac-[αAllylPro]D[tBuAla][B5]TTAAFN[PyrS2][3Thi][Bta]Q-NH2 (staple 1-4, 4-11; also: earlier eluting HPLC isomer) [I-2148]
24 | 798 nM | – | 798 nM | Ac-[αAllylPro]D[tBuAla][B5(5)]D[TfeGA]AAFN[PyrS2″][3Thi][Bta]L-NH2 (staple 1-4, 4-11; also: staple isomer composition, earlier-eluting HPLC peak) [I-946]
25 | – | 5 nM | – | Ac-[αAllylPro]D[tBuAla][B5(4)]D[Phe(3-COOH)]AAFL[PyrS2][3Thi][Phe(3,4-Me2)]Q-NH2 (staple 1-4, 4-11) [I-2291]
26 | 1630 nM | – | 1630 nM | Ac-[αAllylPro]D[tBuAla][B5(4)]D[TfeGA]AAFN[PyrS2″][3Thi][Bta][hSer]-NH2 (staple 1-4, 4-11; also: earlier-eluting staple isomer composition) [I-950]
27 | 2430 nM | – | 2430 nM | Ac-[αAllylPro]D[tBuAla][B5(5)]D[TfeGA]AAFN[PyrS2″][3Thi][Bta][dT]-NH2 (staple 1-4, 4-11; also: staple isomer composition, earlier-eluting HPLC peak) [I-948]
28 | 2260 nM | – | 2260 nM | Ac-[αAllylPro]D[tBuAla][B5(5)]D[TfeGA]AAFN[PyrS2″][3Thi][Bta][dT]-NH2 (staple 1-4, 4-11; also: staple isomer composition, later-eluting HPLC peak) [I-949]
29 | – | 8 nM | – | Ac-[αAllylPro]D[tBuAla][B5(4)]D[Phe(3-COOH)]AAFL[PyrS2][Phe(2-CF3)][3Br4FF]S-NH2 (staple 1-4, 4-11) [I-2289]
30 | 233 nM | – | – | Ac-[αAllylPro]D[tBuAla][B5]NTAAFN[PyrS2][3Thi][Bta]H-NH2 (staple 1-4, 4-11; also: earlier eluting HPLC isomer) [I-2140]
31 | 970 nM | – | – | Ac-[αAllylPro]D[tBuAla][B5]NTAAFN[PyrS2][3Thi][Bta]W-NH2 (staple 1-4, 4-11; also: later eluting HPLC isomer) [I-2139]
32 | 1990 nM | – | 1990 nM | Ac-[αAllylPro]D[tBuAla][B5(5)]D[TfeGA]AAFN[PyrS2″][3Thi][Bta]T-NH2 (staple 1-4, 4-11; also: staple isomer composition, later-eluting HPLC peak) [I-943]
33 | – | 88 nM | – | BrAc-[αAllylPro]D[tBuAla][B5(4)]D[Phe(3-COOH)]AAFL[PyrS2][Phe(2-Cl)][Bta]A-NH2 (staple 1-4, 4-11) [I-2286]
